Data reported in patent US20070224180.
Marks after values point to notes of the source that are not given here.

What was measured:
[1] = molecular target: T1, endothelin (ET-1), P05305
T1 chain: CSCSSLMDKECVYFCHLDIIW

[2] = molecular target: T2, big endothelin (Big ET-1), P05305
T2 chain: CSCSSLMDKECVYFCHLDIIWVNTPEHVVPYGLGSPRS

substance P, P20366 = molecular target: T3, substance P, P20366
T3 chain: RPKPQQFFGLM

PACAP(1-27) = molecular target: T4, PACAP(1-27)
T4 chain: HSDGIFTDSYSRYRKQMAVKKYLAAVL

[3] = molecular target: T5, Fluorescence-quenched Big-ET-1 analogue (17 aa Big-ET)
T5 chain: DIAWFXTPEHVVPYGLG

[4] = molecular target: T6, atrial natriuretic peptide (ANP), P01160
T6 chain: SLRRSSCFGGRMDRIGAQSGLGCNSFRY

Sequence of bradykinin, P01042 (P01042 whole entry, looked up): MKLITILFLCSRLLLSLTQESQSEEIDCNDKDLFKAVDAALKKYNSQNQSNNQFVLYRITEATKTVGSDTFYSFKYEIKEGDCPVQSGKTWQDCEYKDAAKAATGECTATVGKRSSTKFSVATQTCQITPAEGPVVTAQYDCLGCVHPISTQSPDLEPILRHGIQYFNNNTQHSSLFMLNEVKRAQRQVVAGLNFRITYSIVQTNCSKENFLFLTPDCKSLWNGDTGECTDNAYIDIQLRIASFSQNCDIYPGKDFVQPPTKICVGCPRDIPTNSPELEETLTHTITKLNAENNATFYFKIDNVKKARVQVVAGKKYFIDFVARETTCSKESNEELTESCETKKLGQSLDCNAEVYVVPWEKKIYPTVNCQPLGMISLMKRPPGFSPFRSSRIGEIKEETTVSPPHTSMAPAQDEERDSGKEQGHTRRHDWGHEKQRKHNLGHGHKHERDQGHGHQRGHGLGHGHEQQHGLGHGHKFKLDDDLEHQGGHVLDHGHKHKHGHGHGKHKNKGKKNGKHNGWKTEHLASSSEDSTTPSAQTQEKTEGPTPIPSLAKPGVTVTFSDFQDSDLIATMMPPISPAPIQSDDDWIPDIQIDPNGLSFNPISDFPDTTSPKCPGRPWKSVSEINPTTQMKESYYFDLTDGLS
Sequence of angiotensin-1, P01019 (P01019 whole entry, looked up): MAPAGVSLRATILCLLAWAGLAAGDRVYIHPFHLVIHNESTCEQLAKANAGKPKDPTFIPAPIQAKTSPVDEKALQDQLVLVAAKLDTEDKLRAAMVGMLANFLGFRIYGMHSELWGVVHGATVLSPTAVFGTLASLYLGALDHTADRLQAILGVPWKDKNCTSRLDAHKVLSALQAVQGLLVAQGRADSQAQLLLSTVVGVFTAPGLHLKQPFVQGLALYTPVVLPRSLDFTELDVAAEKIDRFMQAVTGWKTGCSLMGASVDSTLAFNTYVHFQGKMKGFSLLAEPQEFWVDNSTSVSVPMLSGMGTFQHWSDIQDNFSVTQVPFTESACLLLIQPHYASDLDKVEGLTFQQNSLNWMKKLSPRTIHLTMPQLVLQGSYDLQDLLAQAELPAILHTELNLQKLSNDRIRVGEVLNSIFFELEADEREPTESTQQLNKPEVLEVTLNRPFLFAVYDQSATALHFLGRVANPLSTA

B1: His6-tagged IGS5 ectodomain (recombinant soluble His-tagged human IGS5) (protein)
chain: GSHHHHHHSEVCTTPGCVIAAARILQNMDPTTEPCDDFYQFACGGWLRRHVIPETNSRYSIFDVLRDELEVILKAVLENSTAKDRPAVEKARTLYRSCMNQSVIEKRGSQPLLDILEVVGGWPVAMDRWNETVGLEWELERQLALMNSQFNRRVLIDLFIWNDDQNSSRHIIYIDQPTLGMPSREYYFNGGSNRKVREAYLQFMVSVATLLREDANLPRDSCLVQEDMMQVLELETQLAKATVPQEERHDVIALYHRMGLEELQSQFGLKGFNWTLFIQTVLSSVKIKLLPDEEVVVYGIPYLQNLENIIDTYSARTIQNYLVWRLVLDRIGSLSQRFKDTRVNYRKALFGTMVEEVRWRECVGYVNSNMENAVGSLYVREAFPGDSKSMVRELIDKVRTVFVETLDELGWMDEESKKKAQEKAMSIREQIGHPDYILEEMNRRLDEEYSNLNFSEDLYFENSLQNLKVGAQRSLRKLREKVDPNLWIIGAAVVNAFYSPNRNQIVFPAGILQPPFFSKEQPQALNFGGIGMVIGHEITHGFDDNGRNFDKNGNMMDWWSNFSTQHFREQSECMIYQYGNYSWDLADEQNVNGFNTLGENIADNGGVRQAYKAYLKWMAEGGKDQQLPGLDLTHEQLFFINYAQVWCGSYRPEFAIQSIKTDVHSPLKYRVLGSLQNLAAFADTFHCARGTPMHPKERCRVW
% Hydrolysis (100 ng IGS5 polypeptide; 0.5 µM substrate; 2 h, 37° C.) (angiotensin-1, P01019): 15%
% Hydrolysis (100 ng IGS5 polypeptide; 0.5 µM substrate; 2 h, 37° C.) [1]: < 30%
% Hydrolysis [2]: (?)****
% Hydrolysis (100 ng IGS5 polypeptide; 0.5 µM substrate; 2 h, 37° C.) (substance P, P20366): 100%
% Hydrolysis (100 ng IGS5 polypeptide; 0.5 µM substrate; 2 h, 37° C.) (bradykinin, P01042): 100%
% Hydrolysis (**10 ng IGS5 polypeptide) (bradykinin, P01042): 62%
% Hydrolysis (PACAP(1-27)): 69%
% Hydrolysis [3]: 41%
% Hydrolysis (100 ng IGS5 polypeptide; 0.5 µM substrate; 2 h, 37° C.) [4]: 5%
% Hydrolysis (*500 ng IGS5 polypeptide) [4]: 80%

B2: XCE/DINE (recombinantly produced) (protein)
chain: KYLGPVAAGGGACPEGCPERKAFARAARFLAANLDASIDPCQDFYSFACGGWLRRHAIPDDKLTYGTIAAIGEQNEERLRRLLARPGGGPGGAAQRKVRAFFRSCLDMREIERLGPRPMLEVIEDCGGWDLGGAEERPGVAARWDLNRLLYKAQGVYSAAALFSLTVSLDDRNSSRYVIRIDQDGLTLPERTLYLAQDEDSEKILAAYRVFMERVLSLLGADAVEQKAQEILQVEQQLANITVSEHDDLRRDVSSMYNKVTLGQLQKITPHLRWKWLLDQIFQEDFSEEEEVVLLATDYMQQVSQLIRSTPHRVLHNYLVWRVVVVLSEHLSPPFREALHELAQEMEGSDKPQELARVCLGQANRHFGMALGALFVHEHFSAASKAKVQQLVEDIKYILGQRLEELDWMDAETRAAARAKLQYMMVMVGYPDFLLKPDAVDKEYEFEVHEKTYFKNILNSIRFSIQLSVKKIRQEVDKSTWLLPPQALNAYYLPNKNQMVFPAGILQPTLYDPDFPQSLNYGGIGTIIGHELTHGYDDWGGQYDRSGNLLHWWTEASYSRFLRKAECIVRLYDNFTVYNQRVNGKHTLGENIADMGGLKLAYHAYQKWVREHGPEHPLPRLKYTHDQLFFIAFAQNWCIKRRSQSIYLQVLTDKHAPEHYRVLGSVSQFEEFGRAFHCPKDSPMNPAHKCSVW
cleavage of PACAP(1-27), HPLC (PACAP(1-27)): None of the aforementioned enzymes was able to cleave PACAP(1-27) under the assay conditions as described above for IGS5

B3: NEP (recombinantly produced and purified neutral endopeptidase, neprilysin) (protein)
chain: YDDGICKSSDCIKSAARLIQNMDATTEPCTDFFKYACGGWLKRNVIPETSSRYGNFDILRDELEVVLKDVLQEPKTEDIVAVQKAKALYRSCINESAIDSRGGEPLLKLLPDIYGWPVATENWEQKYGASWTAEKAIAQLNSKYGKKVLINLFVGTDDKNSVNHVIHIDQPRLGLPSRDYYECTGIYKEACTAYVDFMISVARLIRQEERLPIDENQLALEMNKVMELEKEIANATAKPEDRNDPMLLYNKMTLAQIQNNFSLEINGKPFSWLNFTNEIMSTVNISITNEEDVVVYAPEYLTKLKPILTKYSARDLQNLMSWRFIMDLVSSLSRTYKESRNAFRKALYGTTSETATWRRCANYVNGNMENAVGRLYVEAAFAGESKHVVEDLIAQIREVFIQTLDDLTWMDAETKKRAEEKALAIKERIGYPDDIVSNDNKLNNEYLELNYKEDEYFENIIQNLKFSQSKQLKKLREKVDKDEWISGAAVVNAFYSSGRNQIVFPAGILQPPFFSAQQSNSLNYGGIGMVIGHEITHGFDDNGRNFNKDGDLVDWWTQQSASNFKEQSQCMVYQYGNFSWDLAGGQHLNGINTLGENIADNGGLGQAYRAYQNYIKKNGEEKLLPGLDLNHKQLFFLNFAQVWCGTYRPEYAVNSIKTDVHSPGNFRIIGTLQNSAEFSEAFHCRKNSYMNPEKKCRVW
cleavage of PACAP(1-27), HPLC (PACAP(1-27)): None of the aforementioned enzymes was able to cleave PACAP(1-27) under the assay conditions as described above for IGS5

B4: ECE-1 (recombinantly produced endothelin converting enzyme-1) (protein)
chain: QYQTRSPSVCLSEACVSVTSSILSSMDPTVDPCHDFFSYACGGWIKANPVPDGHSRWGTFSNLWEHNQAIIKHLLENSTASVSEAERKAQVYYRACMNETRIEELRAKPLMELIERLGGWNITGPWAKDNFQDTLQVVTAHYRTSPFFSVYVSADSKNSNSNVIQVDQSGLGLPSRDYYLNKTENEKVLTGYLNYMVQLGKLLGGGDEEAIRPQMQQILDFETALANITIPQEKRRDEELIYHKVTAAELQTLAPAINWLPFLNTIFYPVEINESEPIVVYDKEYLEQISTLINTTDRCLLNNYMIWNLVRKTSSFLDQRFQDADEKFMEVMYGTKKTCLPRWKFCVSDTENNLGFALGPMFVKATFAEDSKSIATEIILEIKKAFEESLSTLKWMDEETRKSAKEKADAIYNMIGYPNFIMDPKELDKVFNDYTAVPDLYFENAMRFFNFSWRVTADQLRKAPNRDQWSMTPPMVNAYYSPTKNEIVFPAGILQAPFYTRSSPKALNFGGIGVVVGHELTHAFDDQGREYDKDGNLRPWWKNSSVEAFKRQTECMVEQYSNYSVNGEPVNGRHTLGENIADNGGLKAAYRAYQNWVKKNGAEHSLPTLGLTNNQLFFLGFAQVWCSVRTPESSHEGLITDPHSPSRFRVIGSLSNSKEFSEHFRCPPGSPMNPPHKCEVW
cleavage of PACAP(1-27), HPLC (PACAP(1-27)): None of the aforementioned enzymes was able to cleave PACAP(1-27) under the assay conditions as described above for IGS5
